# Substitutions are numbered along the chain they refer to.
# B1: Aptamer 38 (ssRNA)
# RNA: GAUGACGGUAGAUUACGGGUAGAGUGACCGCAUC
# modifications: 2'-F G, 2'-OMe A/C/U, 5' C6NH2, 3' idT
# B2: Aptamer 92 (ssRNA)
# RNA: B1 RNA with A2G, U3C, A32G, U33C
# modifications: 2'-F G, 2'-OMe A/C/U, 5' C6NH2, 3' idT
# B3: Aptamer 183 (ssRNA)
# RNA: UCAUGACGGUAGAUUACGGGUAGAGUGACCGCAUGU
# modifications: 2'-F G, 2'-OMe A/C/U, 5' C6NH2, 3' idT
# B4: Aptamer 184 (ssRNA)
# RNA: B3 RNA with C2G, G5C, C32G, G35C
# modifications: 2'-F G, 2'-OMe A/C/U, 5' C6NH2, 3' idT
# B5: Aptamer 208 (ssRNA)
# RNA: UGCCGACGGUAGAUUACGGGUAGAGUGACCGCGGCU
# modifications: 2'-F G, 2'-OMe A/C/U, 5' C6NH2, 3' idT
# B6: Aptamer 209 (ssRNA)
# RNA: B5 RNA with C4U, G33A
# modifications: 2'-F G, 2'-OMe A/C/U, 5' C6NH2, 3' idT
# B7: Aptamer 210 (ssRNA)
# RNA: B5 RNA with C3G, G34C
# modifications: 2'-F G, 2'-OMe A/C/U, 5' C6NH2, 3' idT
# B8: Aptamer 185 (ssRNA)
# RNA: B3 RNA with C2G, G8A, C30U, G35C
# modifications: 2'-F G, 2'-OMe A/C/U, 5' C6NH2, 3' idT
# B9: Aptamer 186 (ssRNA)
# RNA: B3 RNA with C2G, G9A, C29U, G35C
# modifications: 2'-F G, 2'-OMe A/C/U, 5' C6NH2, 3' idT
# B10: Aptamer 187 (ssRNA)
# RNA: B3 RNA with A3U, G35C
# modifications: 2'-F G, 2'-OMe A/C/U, 5' C6NH2, 3' idT
# B11: Aptamer 43 (ssRNA)
# RNA: GCGACGGCAGAUUACGGGUAGAGUGGCCGCGC
# modifications: 2'-F G, 2'-OMe A/C/U, 5' C6NH2, 3' idT
# B12: Aptamer 100 (ssRNA)
# RNA: UGAUGACGGUAGAUUAUGGGAAGUGUGACCGCAUCU
# modifications: 2'-F G, 2'-OMe A/C/U, 5' C6NH2, 3' idT
# B13: Aptamer 95 (ssRNA)
# RNA: B12 RNA with A16C, U17C, A21U
# modifications: 2'-F G, 2'-OMe A/C/U, 5' C6NH2, 3' idT
# B14: Aptamer 96 (ssRNA)
# RNA: B12 RNA with U17C, A21C
# modifications: 2'-F G, 2'-OMe A/C/U, 5' C6NH2, 3' idT
# B15: Aptamer 97 (ssRNA)
# RNA: B12 RNA with U17C, A21G
# modifications: 2'-F G, 2'-OMe A/C/U, 5' C6NH2, 3' idT
# B16: Aptamer 101 (ssRNA)
# RNA: B3 RNA with A16U, A24U
# modifications: 2'-F G, 2'-OMe A/C/U, 5' C6NH2, 3' idT
# B17: Aptamer 102 (ssRNA)
# RNA: B3 RNA
# modifications: 2'-F G, 2'-OMe A/C/U, 5' C6NH2, 3' idT
# B18: Aptamer 104 (ssRNA)
# RNA: B12 RNA with U17A, A21U
# modifications: 2'-F G, 2'-OMe A/C/U, 5' C6NH2, 3' idT
# B19: Aptamer 106 (ssRNA)
# RNA: UGAUGACGAUAGAUUUCGGGUAGUGUGAUCGCAUCU
# modifications: 2'-F G, 2'-OMe A/C/U, 5' C6NH2, 3' idT
# B20: Aptamer 108 (ssRNA)
# RNA: B3 RNA with C2G, U15A, G35C
# modifications: 2'-F G, 2'-OMe A/C/U, 5' C6NH2, 3' idT
# B21: Aptamer 109 (ssRNA)
# RNA: B12 RNA with U15A, U17C, A21U
# modifications: 2'-F G, 2'-OMe A/C/U, 5' C6NH2, 3' idT
# B22: Aptamer 111 (ssRNA)
# RNA: B12 RNA with A21U
# modifications: 2'-F G, 2'-OMe A/C/U, 5' C6NH2, 3' idT
# B23: Aptamer 98 (ssRNA)
# RNA: B12 RNA with U17C
# modifications: 2'-F G, 2'-OMe A/C/U, 5' C6NH2, 3' idT
# B24: Aptamer 103 (ssRNA)
# RNA: B12 RNA with U17C, U24A
# modifications: 2'-F G, 2'-OMe A/C/U, 5' C6NH2, 3' idT
# B25: Aptamer 105 (ssRNA)
# RNA: B12 RNA with U17C, A21U, A22U
# modifications: 2'-F G, 2'-OMe A/C/U, 5' C6NH2, 3' idT
# B26: Aptamer 110 (ssRNA)
# RNA: B12 RNA with A16U, U17C
# modifications: 2'-F G, 2'-OMe A/C/U, 5' C6NH2, 3' idT
# B27: Aptamer 32 (ssRNA)
# RNA: CGGUGGGAAAUGUGAGAUGGGUUGCCG
# modifications: 2'-F G, 2'-OMe A/C/U, 5' C6NH2, 3' idT
# B28: Aptamer 216 (ssRNA)
# RNA: CUGUGGGAAAUGUGAGAUGGGUUGCAG
# modifications: 2'-F G, 2'-OMe A/C/U, 5' C6NH2, 3' idT
# B29: Aptamer 217 (ssRNA)
# RNA: CGCUGGGAAAUGUGAGAUGGGUUGGCG
# modifications: 2'-F G, 2'-OMe A/C/U, 5' C6NH2, 3' idT
# B30: Aptamer 218 (ssRNA)
# RNA: CGAUGGGAAAUGUGAGAUGGGUUGUCG
# modifications: 2'-F G, 2'-OMe A/C/U, 5' C6NH2, 3' idT
# B31: Aptamer 112 (ssRNA)
# RNA: CGGUGGGAAAUCUGAGAUGGGUUGCCG
# modifications: 2'-F G, 2'-OMe A/C/U, 5' C6NH2, 3' idT
# B32: Aptamer 113 (ssRNA)
# RNA: CGGUGGGAAAUAUGAGAUGGGUUGCCG
# modifications: 2'-F G, 2'-OMe A/C/U, 5' C6NH2, 3' idT
# B33: Aptamer 114 (ssRNA)
# RNA: CGGUGGGAAAUUUGAGAUGGGUUGCCG
# modifications: 2'-F G, 2'-OMe A/C/U, 5' C6NH2, 3' idT
# B34: Aptamer 115 (ssRNA)
# RNA: CGGUGGGAAAUGCGAGAUGGGUUGCCG
# modifications: 2'-F G, 2'-OMe A/C/U, 5' C6NH2, 3' idT
# B35: Aptamer 117 (ssRNA)
# RNA: CGGUGGGAAACGCGAGAUGGGUUGCCG
# modifications: 2'-F G, 2'-OMe A/C/U, 5' C6NH2, 3' idT
# B36: Aptamer 118 (ssRNA)
# RNA: CGGUGGGACACGCGAGAUGGGUGGCCG
# modifications: 2'-F G, 2'-OMe A/C/U, 5' C6NH2, 3' idT
# B37: Aptamer 119 (ssRNA)
# RNA: CGGUGGGAAACCUGAGAUGGGUUGCCG
# modifications: 2'-F G, 2'-OMe A/C/U, 5' C6NH2, 3' idT
# B38: Aptamer 120 (ssRNA)
# RNA: CGGUGGGAAACCCGAGAUGGGUUGCCG
# modifications: 2'-F G, 2'-OMe A/C/U, 5' C6NH2, 3' idT
# B39: Aptamer 121 (ssRNA)
# RNA: CGGUGGGACACCCGAGAUGGGUGGCCG
# modifications: 2'-F G, 2'-OMe A/C/U, 5' C6NH2, 3' idT
# B40: Aptamer 154 (ssRNA)
# RNA: CGGUGGGAACUGUGAGAUGGGGUGCCG
# modifications: 2'-F G, 2'-OMe A/C/U, 5' C6NH2, 3' idT
# B41: Aptamer 155 (ssRNA)
# RNA: CGGUGGGAACCGUGAGAUGGGGUGCCG
# modifications: 2'-F G, 2'-OMe A/C/U, 5' C6NH2, 3' idT
# B42: Aptamer 215 (ssRNA)
# RNA: CGGUGGGAAAUGUGAGAUGGGAUGCCG
# modifications: 2'-F G, 2'-OMe A/C/U, 5' C6NH2, 3' idT
# Tests used:
# Assay in all cases: competition; competition TR-FRET
# Details in all cases: tags: C-terminal 6xHis (Sino Biological)
# [1] = target: T1, Interleukin-8 (IL8, CXCL8), C-terminal His-tagged (Homo sapiens, UniProt P10145 SEQ:1-72)
# Procedure: (§1) To better understand the sequence requirements and to confirm the stem structures of members of the Aptamer 3 family as determined from sequence covariation analysis from both the primary and secondary (degenerate) selections, a series of variants which included mutations and deletions to the predicted stems were synthesized and screened (Table 24). Activity of each of these variants were tested using a time resolved competition TR-FRET assay in which the labeled parent Aptamer 3 was competed with increasing concentrations of unlabeled variants for binding to IL8 (FIG. 14). Briefly, 2-fold dilutions of thermally equilibrated aptamers were made in TR-FRET Buffer (50 mM MOPS, pH 7.4, 125 mM NaCl, 5 mM KCl, 50 μM CHAPS, 0.1 mg/mL BSA, 1 mM CaCl₂, and 1 mM MgCl₂). 5 μL of aptamer or control solution was added to 5 μl mix of 10 nM C-terminal His-tagged-IL8, 60 nM ALEXA FLUOR® 647-labeled Aptamer, and 5 nM anti-His-Eu (Perkin Elmer) in a black wall low volume 384 well plate (Greiner). For control, 5 μl of 1000-fold excess of unlabeled parent aptamer or 5 μl TR-FRET buffer alone was added to the mix of ALEXA FLUOR® 647-labeled aptamer, His-IL8, and anti-His-Eu. The plate was covered with a plate seal and subsequently incubated in the dark for 1 hour at room temperature. The plate was read on a Biotek CYTATION™ 5 plate reader. Samples were excited at 330 nm and fluorescent values were collected at 665 nm. Data analysis was performed by subtracting the background value and plotting as percent inhibition, normalized to baseline in the absence of competitor. The values were fit by [Inhibitor] vs. response—Variable slope (four parameters) using GraphPad Prism Version 7.0 and then normalized to aptamer control to obtain an IC₅₀ relative to parent aptamer. Data is presented as log values of relative IC₅₀.
# [2] = target: T1, Interleukin-8 (IL8, CXCL8), C-terminal …; remark: listed apart in the source
# Procedure: as §1
# To test the effects of variation in this region on aptamer function, aptamer clones from Round 5 of the degenerate selection which had mutations in loop L3 were synthesized (Table 26). All of the compounds were tested in the competition TR-FRET assay.
# [3] = target: T1, Interleukin-8 (IL8, CXCL8), C-terminal …; remark: listed apart in the source
# Procedure: as §1, with “Activity” for “To better understand the sequence requirements and to confirm the stem structures of members of the Aptamer 3 family as determined from sequence covariation analysis from both the primary and secondary (degenerate) selections, a series of variants which included mutations and deletions to the predicted stems were synthesized and screened (Table 24). Activity”
# To better understand the sequence requirements and confirm the stem structures of members of the Aptamer 8 family as determined from sequence covariation analysis from both the primary and secondary (degenerate) selections, a series of variants which included mutations and deletions to the predicted stems (Tables 45 and 46) were synthesized and screened. Activity of each of these variants was tested using a competition TR-FRET assay in which the labeled parent Aptamer 8 was competed with increasing concentration of unlabeled variants for binding to IL8 as described in Example 11.
binder,measurement,setting,value
B1,binding result,[1]; stem-loop,binds
B2,binding result,[1]; stem-loop,binds
B3,binding result,[1],binds
B4,binding result,[1],binds
B5,binding result,[1],binds
B6,binding result,[1],binds
B7,binding result,[1],binds
B8,binding result,[1],binds
B9,binding result,[1],binds
B10,binding result,[1],binds
B11,binding signal,[1],> 10 fold worse than Aptamer 3
B12,binding signal,[2],> 10 fold better than Aptamer 3
B13,binding result,[2],binds
B14,binding result,[2],binds
B15,binding result,[2],binds
B16,binding result,[2],binds
B17,binding result,[2],binds
B18,binding result,[2],binds
B19,binding result,[2],binds
B20,binding result,[2],binds
B21,binding result,[2],binds
B22,binding result,[2],binds
B23,binding result,[2],binds
B24,binding result,[2],binds
B25,binding result,[2],binds
B26,binding result,[2],binds
B27,binding result,[3]; stem-loop,binds
B28,binding result,[3],binds
B29,binding result,[3],binds
B30,binding result,[3],binds
B31,binding signal,[3],> 10 fold worse than Aptamer 8
B32,binding signal,[3],> 10 fold worse than Aptamer 8
B33,binding signal,[3],> 10 fold worse than Aptamer 8
B34,binding signal,[3],> 10 fold worse than Aptamer 8
B35,binding signal,[3],> 10 fold worse than Aptamer 8
B36,binding signal,[3],> 10 fold worse than Aptamer 8
B37,binding signal,[3],> 10 fold worse than Aptamer 8
B38,binding signal,[3],> 10 fold worse than Aptamer 8
B39,binding signal,[3],> 10 fold worse than Aptamer 8
B40,binding signal,[3],> 10 fold worse than Aptamer 8
B41,binding signal,[3],> 10 fold worse than Aptamer 8
B42,binding signal,[3],> 10 fold worse than Aptamer 8

# Source: patent US20210230599, “STEM-LOOP COMPOSITIONS AND METHODS FOR INHIBITING INTERLEUKIN-8” (VITRISA THERAPEUTICS, INC., published 2021)
